From US20260226194A1 (GlaxoSmithKline, published 2026)
Changes are numbered by the printed parent chain. In names and notes the source's numbering stands. Blank lines part the entries; values can stand above or below the binder they belong to.

Key:
[1] = biological target: T1, recombinant human PAPPA (pregnancy associated plasma protein-A) (human, UniProt Q13219 82-1627); experiment: cell-based or functional assay
[2] = biological target: T1, recombinant human PAPPA (pregnancy …); experiment: cell-based or functional assay; remark: listed apart in the source
[3] = biological target: T2, endogenous human PAPPA natively secreted by human cells (A549; 9-7) (human, UniProt Q13219 82-1627); experiment: cell-based or functional assay
[4] = biological target: T3, recombinant cynomolgus monkey PAPPA (cynomolgus monkey, UniProt A0A2K5WE98 87-1619); experiment: cell-based or functional assay
[5] = biological target: T1, recombinant human PAPPA (pregnancy …); experiment: cell-based or functional assay; remark: listed apart in the source
[6] = biological target: T2, endogenous human PAPPA natively …; experiment: cell-based or functional assay; remark: listed apart in the source
[7] = biological target: T1, recombinant human PAPPA (pregnancy …); experiment: cell-based or functional assay; remark: listed apart in the source
[8] = biological target: T2, endogenous human PAPPA natively …; experiment: cell-based or functional assay; remark: listed apart in the source
[9] = biological target: T1, recombinant human PAPPA (pregnancy …); experiment: SPR, Biacore 8K+, mAb captured on PrismA chip, PAPPA as analyte, 37 C, mean of n=3
Protocol: (§1) Binding of TPP12744 to recombinant human, cynomolgus monkey and rabbit PAPPA was assessed using capture kinetics method on BIACORE 8K+ (Cytiva) SPR instrument. The antibodies, including controls, were captured on PrismA biosensor surface (Cytiva) at injection rate of 10 μl/min. Analytes were injected at injection rate of 30 μl/min over the captured antibodies as a concentration series including eight 2× serial dilutions with the highest concentration of 32 nM. Association phase was 160 seconds, followed by a dissociation phase of 600 seconds. Buffer only (OnM analyte) injection was used to double reference the binding curves. Regeneration of the chip surface between cycles was carried out using 10 mM Glycine pH 1.5. The assay was run at 37° C. in HBS-EP+ buffer with 0.1% BSA to minimize the nonspecific binding of the analytes to the chip surface. TPP12744 was analyzed as three independently prepared replicates.
(§2) The final screening process was conducted using the following criteria. Firstly, antibodies were checked for affinity to human PAPPA (method #4). Only antibodies with low nanomolar affinity for human PAPPA were retained. For one antibody (TPP12744) binding to PAPPA was assessed at 37° C. using the methodology described in Example 1, method #6.

[10] = biological target: human PAPPA (Common variant) (human); experiment: as above
Protocol: as §1, §2

[11] = biological target: T3, recombinant cynomolgus monkey PAPPA; experiment: as above
Protocol: as §1, §2

rat PAPPA = rat PAPPA (rat, UniProt A0ABK0LMY4 80-1624); experiment: SPR (Biacore 8K+, captured mAb, 37 C); data not shown
recombinant mouse PAPPA [12] = biological target: T4, recombinant mouse PAPPA (mouse, UniProt Q8R4K8 82-1624, limits assumed); experiment: as above
T4 construct: also called murine PAPPA; rec; Mouse PAPP-A

recombinant mouse PAPPA [13] = biological target: T4, recombinant mouse PAPPA; experiment: cell-based or functional assay

T3 sequence (A0A2K5WE98 entry or part of it): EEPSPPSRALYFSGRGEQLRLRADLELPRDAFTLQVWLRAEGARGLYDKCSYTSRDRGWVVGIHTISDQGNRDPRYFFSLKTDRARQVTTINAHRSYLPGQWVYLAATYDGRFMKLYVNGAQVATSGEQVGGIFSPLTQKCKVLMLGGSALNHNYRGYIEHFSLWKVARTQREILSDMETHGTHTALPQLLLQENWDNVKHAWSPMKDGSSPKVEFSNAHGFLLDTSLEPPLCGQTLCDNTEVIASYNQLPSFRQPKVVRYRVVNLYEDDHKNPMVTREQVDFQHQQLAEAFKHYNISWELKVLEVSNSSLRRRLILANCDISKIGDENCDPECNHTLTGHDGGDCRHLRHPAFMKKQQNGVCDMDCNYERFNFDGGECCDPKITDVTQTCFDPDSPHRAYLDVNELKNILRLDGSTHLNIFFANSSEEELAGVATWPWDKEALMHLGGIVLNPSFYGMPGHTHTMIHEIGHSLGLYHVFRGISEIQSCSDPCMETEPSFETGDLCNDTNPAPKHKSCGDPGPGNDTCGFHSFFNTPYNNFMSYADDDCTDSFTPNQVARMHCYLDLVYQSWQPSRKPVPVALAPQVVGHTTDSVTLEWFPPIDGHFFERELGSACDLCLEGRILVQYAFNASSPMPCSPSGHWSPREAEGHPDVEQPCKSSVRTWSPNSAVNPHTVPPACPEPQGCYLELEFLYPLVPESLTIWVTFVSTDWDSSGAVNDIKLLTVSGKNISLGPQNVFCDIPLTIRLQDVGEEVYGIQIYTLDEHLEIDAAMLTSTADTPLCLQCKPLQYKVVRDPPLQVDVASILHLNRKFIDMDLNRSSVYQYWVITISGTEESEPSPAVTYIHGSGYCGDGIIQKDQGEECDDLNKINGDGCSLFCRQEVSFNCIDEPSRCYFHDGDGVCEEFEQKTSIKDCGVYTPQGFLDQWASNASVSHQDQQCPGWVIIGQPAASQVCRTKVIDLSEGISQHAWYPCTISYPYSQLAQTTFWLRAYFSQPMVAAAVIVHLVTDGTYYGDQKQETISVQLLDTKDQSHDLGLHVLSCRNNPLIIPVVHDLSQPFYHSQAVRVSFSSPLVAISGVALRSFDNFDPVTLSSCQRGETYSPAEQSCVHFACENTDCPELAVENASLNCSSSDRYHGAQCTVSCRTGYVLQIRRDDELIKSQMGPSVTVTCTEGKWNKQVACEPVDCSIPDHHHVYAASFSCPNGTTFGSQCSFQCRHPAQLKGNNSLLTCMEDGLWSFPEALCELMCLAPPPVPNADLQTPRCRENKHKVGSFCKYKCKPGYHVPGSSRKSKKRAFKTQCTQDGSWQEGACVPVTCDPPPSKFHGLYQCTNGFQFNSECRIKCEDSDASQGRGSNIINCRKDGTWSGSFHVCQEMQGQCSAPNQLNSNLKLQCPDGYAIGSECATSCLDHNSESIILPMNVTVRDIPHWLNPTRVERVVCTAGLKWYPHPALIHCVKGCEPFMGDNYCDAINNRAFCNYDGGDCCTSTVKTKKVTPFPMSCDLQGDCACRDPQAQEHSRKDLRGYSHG
T4 sequence (Q8R4K8 82-1624 limits assumed): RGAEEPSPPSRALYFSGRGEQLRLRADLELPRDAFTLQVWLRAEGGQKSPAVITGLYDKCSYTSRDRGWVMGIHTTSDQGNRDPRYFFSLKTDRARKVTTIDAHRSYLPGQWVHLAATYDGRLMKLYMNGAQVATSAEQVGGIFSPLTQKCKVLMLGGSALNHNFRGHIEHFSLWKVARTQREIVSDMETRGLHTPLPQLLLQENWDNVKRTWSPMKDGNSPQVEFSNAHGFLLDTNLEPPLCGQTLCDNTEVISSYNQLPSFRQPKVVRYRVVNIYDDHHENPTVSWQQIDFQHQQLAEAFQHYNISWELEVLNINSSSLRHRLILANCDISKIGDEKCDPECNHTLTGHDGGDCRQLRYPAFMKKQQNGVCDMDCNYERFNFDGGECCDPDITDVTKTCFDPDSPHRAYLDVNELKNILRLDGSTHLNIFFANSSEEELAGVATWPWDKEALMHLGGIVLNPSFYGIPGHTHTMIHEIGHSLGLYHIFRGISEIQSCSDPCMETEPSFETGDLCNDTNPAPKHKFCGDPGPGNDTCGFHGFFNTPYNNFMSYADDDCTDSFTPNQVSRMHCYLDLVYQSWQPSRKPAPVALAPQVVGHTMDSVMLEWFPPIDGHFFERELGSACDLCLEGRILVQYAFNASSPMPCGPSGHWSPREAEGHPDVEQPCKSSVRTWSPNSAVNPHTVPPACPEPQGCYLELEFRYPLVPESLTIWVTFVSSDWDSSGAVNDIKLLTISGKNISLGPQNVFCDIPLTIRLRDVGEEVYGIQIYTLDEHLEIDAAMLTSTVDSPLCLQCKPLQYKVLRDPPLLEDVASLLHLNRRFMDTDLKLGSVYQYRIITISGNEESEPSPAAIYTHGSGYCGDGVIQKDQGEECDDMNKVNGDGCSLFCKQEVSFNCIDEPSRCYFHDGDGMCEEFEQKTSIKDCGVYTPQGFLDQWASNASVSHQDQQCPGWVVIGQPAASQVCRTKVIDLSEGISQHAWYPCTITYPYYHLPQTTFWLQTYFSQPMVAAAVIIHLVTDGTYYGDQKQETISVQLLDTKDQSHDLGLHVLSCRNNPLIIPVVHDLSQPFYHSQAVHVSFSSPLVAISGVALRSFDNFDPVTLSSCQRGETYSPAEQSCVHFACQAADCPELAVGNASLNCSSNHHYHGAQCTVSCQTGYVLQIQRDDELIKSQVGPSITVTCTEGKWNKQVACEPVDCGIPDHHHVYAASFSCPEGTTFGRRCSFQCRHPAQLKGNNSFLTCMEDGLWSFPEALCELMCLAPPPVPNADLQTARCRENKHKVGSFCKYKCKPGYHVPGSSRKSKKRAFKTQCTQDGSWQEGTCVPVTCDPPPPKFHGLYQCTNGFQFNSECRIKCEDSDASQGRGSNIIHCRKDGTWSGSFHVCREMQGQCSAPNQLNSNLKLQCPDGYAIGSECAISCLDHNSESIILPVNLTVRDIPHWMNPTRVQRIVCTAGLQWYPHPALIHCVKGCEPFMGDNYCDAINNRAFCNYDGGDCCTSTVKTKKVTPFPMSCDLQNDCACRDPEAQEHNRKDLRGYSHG
T1 sequence (Q13219 82-1627 limits assumed): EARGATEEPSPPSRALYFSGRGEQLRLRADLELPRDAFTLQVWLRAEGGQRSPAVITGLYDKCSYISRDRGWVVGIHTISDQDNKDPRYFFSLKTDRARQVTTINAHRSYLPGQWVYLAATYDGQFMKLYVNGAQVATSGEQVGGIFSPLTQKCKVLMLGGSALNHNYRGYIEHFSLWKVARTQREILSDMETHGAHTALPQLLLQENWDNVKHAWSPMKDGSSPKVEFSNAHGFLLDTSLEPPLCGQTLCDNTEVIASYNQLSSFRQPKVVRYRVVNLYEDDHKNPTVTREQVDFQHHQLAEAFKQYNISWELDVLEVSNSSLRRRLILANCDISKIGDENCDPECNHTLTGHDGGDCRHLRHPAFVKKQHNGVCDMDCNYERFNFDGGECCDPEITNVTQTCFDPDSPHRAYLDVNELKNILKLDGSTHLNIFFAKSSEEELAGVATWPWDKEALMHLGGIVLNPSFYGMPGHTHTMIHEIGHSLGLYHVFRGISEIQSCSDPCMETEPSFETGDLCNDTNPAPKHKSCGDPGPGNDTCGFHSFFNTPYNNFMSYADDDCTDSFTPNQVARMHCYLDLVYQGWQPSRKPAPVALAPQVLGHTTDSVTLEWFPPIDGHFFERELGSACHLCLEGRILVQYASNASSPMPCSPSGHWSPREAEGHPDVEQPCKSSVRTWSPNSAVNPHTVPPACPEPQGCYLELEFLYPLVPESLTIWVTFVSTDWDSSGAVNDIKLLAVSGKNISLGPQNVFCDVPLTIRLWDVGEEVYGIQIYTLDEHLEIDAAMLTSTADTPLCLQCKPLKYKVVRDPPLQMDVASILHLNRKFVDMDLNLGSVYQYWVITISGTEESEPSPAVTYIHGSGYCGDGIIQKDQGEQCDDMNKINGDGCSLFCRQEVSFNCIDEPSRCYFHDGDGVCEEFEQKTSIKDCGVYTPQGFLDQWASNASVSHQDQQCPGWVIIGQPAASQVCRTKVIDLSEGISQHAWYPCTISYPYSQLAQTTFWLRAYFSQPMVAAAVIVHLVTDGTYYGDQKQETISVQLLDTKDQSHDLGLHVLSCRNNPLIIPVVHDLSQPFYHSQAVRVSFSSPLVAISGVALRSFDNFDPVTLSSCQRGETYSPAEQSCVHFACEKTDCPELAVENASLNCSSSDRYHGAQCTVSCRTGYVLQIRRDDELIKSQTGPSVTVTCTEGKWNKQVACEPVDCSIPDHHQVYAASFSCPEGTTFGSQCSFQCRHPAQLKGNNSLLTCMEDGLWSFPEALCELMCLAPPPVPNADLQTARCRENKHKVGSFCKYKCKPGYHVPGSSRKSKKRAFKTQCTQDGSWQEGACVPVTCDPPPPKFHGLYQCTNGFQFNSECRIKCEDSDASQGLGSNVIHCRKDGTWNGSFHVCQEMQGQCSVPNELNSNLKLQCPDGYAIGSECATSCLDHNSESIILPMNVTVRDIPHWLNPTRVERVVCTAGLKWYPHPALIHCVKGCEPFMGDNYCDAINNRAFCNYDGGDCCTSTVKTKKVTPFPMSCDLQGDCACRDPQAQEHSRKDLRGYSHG
T2 sequence (Q13219 82-1627 limits assumed): as above

PAPP-A cleavage of IGFBP-5 Mean pIC50 [1]: 11.1 pIC50
rec. Human PAPP-A IGFBP4 pIC50 (G-401 pAKT assay) [2]: 9.59 pIC50
rec. Human PAPP-A IGFBP5 pIC50 (G-401 pAKT assay) [2]: 9.92 pIC50
A549 cells endogenous human PAPP-A pIC50 (A549 pAKT assay) [3]: 9.86 pIC50
rec. Cyno PAPP-A IGFBP4 pIC50 (G-401 pAKT assay) [4]: 9.7 pIC50
PAPP-A cleavage of IGFBP-4 Mean pIC50 [5]: 10.2 pIC50
B2: TPP-12708 (antibody, human IgG1, kappa, V domains shown)
VH: QVQLVQSGAEVKKPGASVKVSCKASGYTFTSYAMHWVRQAPGQRLEWMGWINAGTGATKYARKFQGRVTITRDTSASTAYMELSSLRSEDTAVYYCARGPSMETPTTYGMEVWGQGTTVTVSS
VL: DIQMTQSPSSVSASVGDRVTITCRASQGISRWLAWYQQKPGKAPKLLIYSTSSLQLGVPSRFSGSGSGTDFTLTISSLQPEDFATYYCQQENDYPFTFGGGTKVEIKR

EC50 (read off the curve) [6]: ~1 nM
PAPP-A cleavage of IGFBP-5 Mean pIC50 [1]: 10.7 pIC50
IC50, PAPPA-mediated cleavage of human IGFBP2, cell-free, Western blot [7]: 1.39 nM
EC50, increase of intact IGFBP4 in A549 cell supernatant (ELISA) [8]: 0.8 nM
EC50, increase of intact IGFBP4 in ADPKD patient derived cystic 9-7 cells (ELISA) [8]: 0.4 nM
IC50, decrease of IGFBP4-Ct fragments in 9-7 cells (ELISA) [8]: 0.02 nM
IC50, decrease of IGFBP4-Ct fragments in A549 cell supernatant (ELISA) [8]: 0.8 nM
IC50, decrease of free-IGF-1 in A549 cell supernatant (ELISA) [8]: 0.03 nM
pEC50, increase of intact IGFBP4 in 9-7 cells (ELISA) [8]: 9.41 pEC50
pEC50, increase of intact IGFBP4 in A549 cell supernatant (ELISA) [8]: 9.09 pEC50
pIC50, decrease of IGFBP4-Ct fragments in 9-7 cells (ELISA) [8]: 10.6 pIC50
pIC50, decrease of IGFBP4-Ct fragments in A549 cell supernatant (ELISA) [8]: 9.07 pIC50
pIC50, decrease of free-IGF-1 in A549 cell supernatant (ELISA) [8]: 10.5 pIC50
Kd [9]: 0.127 nM
koff [9]: 0.000319 s⁻¹
kon [9]: 2.51e+06 M⁻¹ s⁻¹
Kd [10]: 0.21 nM
koff [10]: 0.000393 s⁻¹
kon [10]: 1.87e+06 M⁻¹ s⁻¹
Kd [11]: 0.161 nM
koff [11]: 0.000433 s⁻¹
kon [11]: 2.68e+06 M⁻¹ s⁻¹
binding result (rat PAPPA): no binding
binding result (recombinant mouse PAPPA [12]): no binding
rec. Human PAPP-A IGFBP4 pIC50 (G-401 pAKT assay) [2]: 9.46 pIC50
rec. Human PAPP-A IGFBP5 pIC50 (G-401 pAKT assay) [2]: 9.81 pIC50
A549 cells endogenous human PAPP-A pIC50 (A549 pAKT assay) [3]: 9.49 pIC50
rec. Cyno PAPP-A IGFBP4 pIC50 (G-401 pAKT assay) [4]: 9.56 pIC50
PAPP-A cleavage of IGFBP-4 Mean pIC50 [5]: 10 pIC50
B4: TPP-12744 (antibody, human IgG1, kappa, V domains shown)
VH: B2 VH with I51M, Y60S, A61S, R62Q, Y108F, E111D
VL: B2 VL with S50A, T51A, L56S, D93A
notes: human IgG1/kappa, Fc-disabled (L235A, G237A)

PAPP-A cleavage of IGFBP-5 Mean pIC50 [1]: 8.69 pIC50
rec. Human PAPP-A IGFBP4 pIC50 (G-401 pAKT assay) [2]: 8.84 pIC50
rec. Human PAPP-A IGFBP5 pIC50 (G-401 pAKT assay) [2]: 8.81 pIC50
rec. Mouse PAPP-A IGFBP4 pIC50 (G-401 pAKT assay) (recombinant mouse PAPPA [13]): 8.88 pIC50
A549 cells endogenous human PAPP-A pIC50 (A549 pAKT assay) [3]: 8.44 pIC50
rec. Cyno PAPP-A IGFBP4 pIC50 (G-401 pAKT assay) [4]: 8.48 pIC50
PAPP-A cleavage of IGFBP-4 Mean pIC50 [5]: 8.8 pIC50
B6: TPP-12683 (antibody, human IgG1, kappa, V domains shown)
VH: QLQLQESGPGLVKPSETLSLTCTVSGGSISSSSYNWGWIRQPPGKGLEWIGSISSSGSTYFNPSLKSRVTISVDTSKNQFSLKLSSVTAADTAVYYCARSGYRPSFYAMDAWGQGTTVTVSS
VL: DIQLTQSPSSVSASVGDRVTITCRASQDISYWLAWYQQKPGKAPKLLIYAASSLQSGVPSRFSGSGSGTDFTLTISSLQPEDFATYYCQQAYLLHTFGGGTKVEIKR

PAPP-A cleavage of IGFBP-5 Mean pIC50 [1]: 9.1 pIC50
rec. Human PAPP-A IGFBP4 pIC50 (G-401 pAKT assay) [2]: 9.45 pIC50
rec. Human PAPP-A IGFBP5 pIC50 (G-401 pAKT assay) [2]: 9.04 pIC50
rec. Mouse PAPP-A IGFBP4 pIC50 (G-401 pAKT assay) (recombinant mouse PAPPA [13]): 9.28 pIC50
A549 cells endogenous human PAPP-A pIC50 (A549 pAKT assay) [3]: 9.5 pIC50
rec. Cyno PAPP-A IGFBP4 pIC50 (G-401 pAKT assay) [4]: 9.85 pIC50
PAPP-A cleavage of IGFBP-4 Mean pIC50 [5]: 10.5 pIC50
B8: TPP-12821 (antibody, human IgG1, kappa, V domains shown)
VH: EVQLVQSGAEVKKPGESLKISCKGSGYSFTSDWIGWVRQAPGKGLEWMGIIYPGGSDTRYSPSFRGQVTISADKSISTAYLQWSSLKASDTAVYYCARGPLRSDYVDVWGQGTMVTVSS
VL: EIVMTQSPATLSVSPGERATLSCRASQSVGSNLAWYQQKPGQAPRLLIYRASTRATGIPARFSGSGSGTEFTLTISSLQSEDFAVYYCQQPYVWPITFGGGTKVEIKR

Further lines, the binder ahead of its results:

B1: TPP-12743 (antibody, human IgG1, kappa, V domains shown)
VH: B2 VH with I51M, Y60S, A61S, R62Q, M102L, Y108F, E111D
VL: B2 VL with S50A, T51A, L56S, D93A
PAPP-A cleavage of IGFBP-5 Mean pIC50 [1]: 10.4 pIC50
rec. Human PAPP-A IGFBP4 pIC50 (G-401 pAKT assay) [2]: 9.36 pIC50
rec. Human PAPP-A IGFBP5 pIC50 (G-401 pAKT assay) [2]: 9.66 pIC50
A549 cells endogenous human PAPP-A pIC50 (A549 pAKT assay) [3]: 9.76 pIC50
rec. Cyno PAPP-A IGFBP4 pIC50 (G-401 pAKT assay) [4]: 10 pIC50
PAPP-A cleavage of IGFBP-4 Mean pIC50 [5]: 10 pIC50

B3: TPP-12801 (antibody, human IgG1, kappa, V domains shown)
VH: QLQLQESGPGLVKPSETLSLTCTVSGGSISSSDYYWGWIRQPPGKGLEWIGSIFYSGSTYYNPSLKSRVTISVDTSKNQFSLKLSSVTAADTAVYYCARATTSSSADYWGQGTLVTVSS
VL: B2 VL with I29V, S50A, T51A, L56S, E91G, D93V, Y94P, F96L
PAPP-A cleavage of IGFBP-5 Mean pIC50 [1]: 9.1 pIC50
rec. Human PAPP-A IGFBP4 pIC50 (G-401 pAKT assay) [2]: 9.22 pIC50
rec. Human PAPP-A IGFBP5 pIC50 (G-401 pAKT assay) [2]: 9.05 pIC50
A549 cells endogenous human PAPP-A pIC50 (A549 pAKT assay) [3]: 9.33 pIC50
rec. Cyno PAPP-A IGFBP4 pIC50 (G-401 pAKT assay) [4]: 9.76 pIC50
PAPP-A cleavage of IGFBP-4 Mean pIC50 [5]: 8.96 pIC50

B5: TPP-12792 (antibody, human IgG1, kappa, V domains shown)
VH: B3 VH
VL: B2 VL with S50A, T51A, L54V, L56S, E91G, D93V, Y94P, F96L
PAPP-A cleavage of IGFBP-5 Mean pIC50 [1]: 9.78 pIC50
rec. Human PAPP-A IGFBP4 pIC50 (G-401 pAKT assay) [2]: 9.18 pIC50
rec. Human PAPP-A IGFBP5 pIC50 (G-401 pAKT assay) [2]: 9.35 pIC50
A549 cells endogenous human PAPP-A pIC50 (A549 pAKT assay) [3]: 8.92 pIC50
rec. Cyno PAPP-A IGFBP4 pIC50 (G-401 pAKT assay) [4]: 9.23 pIC50
PAPP-A cleavage of IGFBP-4 Mean pIC50 [5]: 9.53 pIC50

B7: TPP-12681 (antibody, human IgG1, kappa, V domains shown)
VH: B8 VH with D32Y, I34T, D57V, T58A, R65Q, V106P
VL: B8 VL with N32Y, A51G
EC50 (read off the curve) [6]: ~0.1 nM
rec. Human PAPP-A IGFBP4 pIC50 (G-401 pAKT assay) [2]: 9.57 pIC50
rec. Human PAPP-A IGFBP5 pIC50 (G-401 pAKT assay) [2]: 9.68 pIC50
rec. Mouse PAPP-A IGFBP4 pIC50 (G-401 pAKT assay) (recombinant mouse PAPPA [13]): 9.51 pIC50
A549 cells endogenous human PAPP-A pIC50 (A549 pAKT assay) [3]: 9.7 pIC50
rec. Cyno PAPP-A IGFBP4 pIC50 (G-401 pAKT assay) [4]: 9.46 pIC50
PAPP-A cleavage of IGFBP-4 Mean pIC50 [5]: 10.1 pIC50
